In patent publication US11752211B2, “Fatty acids and their use in conjugation to biomolecules” (NOVARTIS AG, priority 2014, dated 2023):
One block for each molecule: values may come before it. Starred links: 1 amine or outer side, 2 acyl side, 3 side chain; linkers in the order of their positions; H or OH if unused. Positions of bridges follow the written chain, without caps; N, C: chain ends. Non-standard residues stand in square brackets, D forms with d. Residues, ends and D or L forms follow the SMILES beside them. Groups on a side chain read outwards from the residue. *: point of attachment. PEG24 = NCCOCCOCCOCCOCCOCCOCCOCCOCCOCCOCCOCCOCCOCCOCCOCCOCCOCCOCCOCCOCCOCCOCCOCCOCCC(=O)O; Malonyl(C11H23,(CH2)10COOH) = CCCCCCCCCCCC(CCCCCCCCCCC(=O)O)(C(=O)O)C(=O)*; NGly(3-aminopropyl) = O=C(CN(CCCN[*:3])[*:1])[*:2]; pGlu = O=C1CC[C@@H](C(=O)O)N1; NHPhenethyl = c1ccc(CCN*)cc1; dNle = CCCC[C@@H](N)C(=O)O; Nle = CCCC[C@H](N)C(=O)O; Sar = CNCC(=O)O

Experiments:
[1] = In vivo plasma stability of oxytocin conjugate, 3 mg/kg iv; parameters: species or system rats; conditions: 3 mg/kg intravenously; for half-life: rat, plasma, iv, male Sprague-Dawley rats, read-out: In vivo Plasma stability t½ (converted)
Experimental: (§1) Conjugate was dissolved in PBS (Phosphate buffered saline) to a concentration of 3 mg/ml to form Dosing solution. Dosing solution was administered intravenously to male Sprague-Dawley rats via lateral tail vein at a volume of 1 ml/kg body weight, corresponding to a dose of 3 mg/kg. Venous blood samples were acquired from a jugular vein catheter at prescribed times after dosing and immediately placed on wet ice. These samples were centrifuged at 4C, with supernatant plasma transferred to a fresh tube for analysis.
Standard curve preparation: Stock solution was prepared by dissolving peptide conjugate and peptide into two separate vials in dimethylsulfoxide to 1 mg/ml. 10 uL of each stock was mixed with 980 uL rat plasma to form a working stock of 10,000 ng/ml in plasma. This was serially diluted in plasma to form standards of 5000, 1000, 500, 100, 50, 10, 5, 1, 0.5, and 0.1 ng/ml. Sample and standard preparation: 25 uL plasma sample or standard was transferred to a clean plate. 150 uL acetonitrile containing 100 ng/ml glyburide as internal standard was added to each vial and the plate vortexed to mix the contents. The plate was centrifuged at 4000 rpm at 4 C. 125 uL supernatant was transferred to a clean plate, mixed with 150 uL water and analyzed by LC/MS.

OT = target: T1, OT (Homo sapiens, UniProt P30559); experiment: OT Calcium flux agonist assay (GPCRProfiler); assay type: cell-based; conditions: read-out: OT Ca^2+ Flux EC50
T1 sequence (P30559 1-389): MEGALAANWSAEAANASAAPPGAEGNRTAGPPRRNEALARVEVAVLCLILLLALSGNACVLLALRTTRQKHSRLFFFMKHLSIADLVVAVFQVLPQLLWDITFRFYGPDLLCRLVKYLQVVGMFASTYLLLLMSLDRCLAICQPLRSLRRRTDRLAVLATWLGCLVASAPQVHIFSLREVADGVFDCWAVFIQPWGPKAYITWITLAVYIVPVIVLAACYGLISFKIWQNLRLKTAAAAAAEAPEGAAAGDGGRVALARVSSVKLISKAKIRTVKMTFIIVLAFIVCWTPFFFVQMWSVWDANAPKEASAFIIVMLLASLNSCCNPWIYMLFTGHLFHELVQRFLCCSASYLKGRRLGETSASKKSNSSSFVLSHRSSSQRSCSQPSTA
Experimental: Supplied compounds were prepared in DMSO and ultimately prepared in the Eurofins Discovery Services GPCRProfiler® Assay Buffer to concentrations that were three-fold higher than the final assay concentration. Similarly, vehicle controls and positive controls were prepared to ensure all assays were properly controlled.
All wells were prepared using the Eurofins Discovery Services GPCRProfiler® Assay Buffer. The GPCRProfiler® Assay Buffer was a modified Hanks Balanced Salt Solution (HBSS) where HBSS was supplemented to contain 20 mM HEPES and 2.5 mM Probenecid at pH7.4.
Compound(s) supplied were plated in duplicate for each concentration assayed.
Reference agonist, oxytocin, was prepared in a similar manner to serve as assay control. The reference agonist, oxytocin, was included at Emax (the concentration where the reference agonist elicited a maximal response).
The agonist assay was conducted on a […] instrument where the test compound(s), vehicle controls, and reference agonist were added to the assay plate after a fluorescence/luminescence baseline was established. […]
All plates were subjected to appropriate baseline corrections. Once baseline corrections were processed, maximum fluorescence/luminescence values were exported and data manipulated to calculate percentage activation and percentage inhibition. […]

[2] = In vivo plasma stability of APJ agonist conjugates, 1 mg/kg iv; conditions: rat, male Sprague-Dawley rats, 1 mg/kg intravenously, read-out: In vivo Plasma stability t½ (converted)
Experimental: as §1, with “1” for “3”
• Standard curve preparation: Stock solution was prepared by dissolving peptide conjugate in water to 1 mg/ml. 10 uL of Stock was mixed with 990 uL rat plasma to form a working stock of 10,000 ng/ml in plasma. This was serially diluted in plasma to form standards of 5000, 1000, 500, 100, 50, 10, 5 and 1 ng/ml. • Sample and standard preparation: 25 uL plasma sample or standard was transferred to a clean plate. 150 uL acetonitrile:MeOH (1:1) containing 100 ng/ml glyburide as internal standard was added to each vial and the plate vortexed to mix the contents. The plate was centrifuged at 4000 rpm at 4 C. 125 uL supernatant was transferred to a clean plate, mixed with 50 uL water and analyzed by LC/MS.

[3] = Material quality check of GDF15 proteins (clipping, methionine oxidation, deamidation); assay type: physicochemical
Source text: The AHA-(200-308)-hGDF15 (SEQ ID NO: 7) was designed to remove the clipping site observed within the native protein as well as to remove the potential methioinine (M1) formylation site and the N-199 deamidation site.

[4] = tested on: Diet-induced obese male mice (C57BL/6NTac); experiment: DIO mice single 0.5 mg/kg sc dose: food intake and body weight; conditions: exp 1 / exp 2 = separate in vivo experiments
Experimental: (§2) All animal studies described in this document were approved by the Novartis Institutes for Biomedical Research Animal Care and Use Committee in accordance with local and federal regulations and guidelines. Diet-induced obese male mice (C57BL/6NTac) were purchased from Taconic and fed a 60% fat diet (Research Diets D12492i) from 6-weeks of age onward. Upon arrival, mice were housed one animal per cage under a 12 h:12 h reverse light-dark cycle. Animals all received a minimum of 1 week acclimation prior to any use. Mice were typically studied between 3-4 months of age. […] On the day of study, mice were placed in fresh cages, and the old food removed. Approximately 1 h later and just prior to the dark cycle, mice received a single subcutaneous dose of either vehicle (30 mM sodium acetate, pH 4) or a lipid conjugated GDF15 analog (0.5 mg/kg). After all injections are completed, the mice were reweighed and a defined amount of food returned ([…] per mouse). In surrogate animals treated as described above, plasma was collected at the indicated times, and GDF15 levels were measured by ELISA as per the manufacturer's instructions (R&D Systems Quantikine Human GDF15 Immunoassay; DGD150). The activity and half-life of the conjugates of the invention were tested in the assay described supra.

[5] = DIO mice single 0.5 mg/kg sc dose: plasma GDF15 levels by ELISA (PK); conditions: exp 1 / exp 2 = separate in vivo experiments
Experimental: as §2

[6] = clipping site R9/N10 (for the AHA protein: none detected)

half-life [1]: 0.6 h
EC50 (OT): 7.8 nM
Molecule: CC[C@H](C)[C@@H]1NC(=O)[C@H](Cc2ccc(O)cc2)NC(=O)CNC(=O)CC[C@@H](C(=O)N(C)CC(=O)N[C@@H](CC(C)C)C(=O)NCC(N)=O)NC(=O)[C@H](CC(N)=O)NC(=O)[C@H](CCC(N)=O)NC1=O (GYIQNE[Sar]LG-NH2; lactam N-6)

Molecule: C=CCCCCCCCCCC(CCCCCCCCCCC(=O)O)(C(=O)O)C(=O)NCCOCCOCCOCCOCCOCCOCCOCCOCCOCCOCCOCCOCCOCCOCCOCCOCCOCCOCCOCCOCCOCCOCCOCCn1nnc2c1CCC1C(CC2)[C@@H]1COC(=O)NCCCC[C@@H]1NC(=O)[C@H](Cc2c[nH]cn2)NC(=O)[C@@H](NC(=O)[C@H](CC(C)C)NC(=O)[C@H](CCCNC(=N)N)NC(=O)[C@@H]2CCCN2C(=O)[C@H](CCCNC(=N)N)NC(=O)[C@@H]2CCC(=O)N2)CSSC[C@@H](C(=O)N[C@@H](Cc2ccccc2)C(=O)O)NC(=O)[C@H](CCCC)NC(=O)[C@@H]2CCCN2C(=O)CNC1=O (stereo partly drawn) [Example 21A]
half-life ([2]; plasma): 444 min

EC50 (OT): 8.4 nM
Molecule: CCCCCCCCCCCC(CCCCCCCCCCC(=O)O)(C(=O)O)C(=O)NCCOCCOCCOCCOCCOCCOCCOCCOCCOCCOCCOCCOCCOCCOCCOCCOCCOCCOCCOCCOCCOCCOCCOCCOCCC(=O)NCCCN(CC(=O)N[C@@H](CC(C)C)C(=O)NCC(N)=O)C(=O)[C@@H]1CCC(=O)NCC(=O)N[C@@H](Cc2ccc(O)cc2)C(=O)N[C@@H]([C@@H](C)CC)C(=O)N[C@@H](CCC(N)=O)C(=O)N[C@@H](CC(N)=O)C(=O)N1 (stereo partly drawn) [Example 26A] (GYIQNE[NGly(3-aminopropyl)]([PEG24-Malonyl(C11H23,(CH2)10COOH)])LG-NH2; lactam N-6)
half-life [1]: 46 h
increase in half-life compared to unconjugated oxytocin analog ([1]; rats): 75 fold

Molecule: CCCC[C@@H](NC(=O)[C@@H]1CCCN1C(=O)CNC(=O)[C@H](CCCCN)NC(=O)[C@@H]1CSSC[C@H](NC(=O)[C@@H]2CCCN2C(=O)[C@H](CCCNC(=N)N)NC(=O)[C@@H]2CCC(=O)N2)C(=O)N[C@@H](CC(C)C)C(=O)N[C@@H](CO)C(=O)N1)C(=O)NCCc1ccccc1 [pE-R—P—C*-L-S—C*—K-G-P-(D-Nle)-NH(Phenethyl) (disulfide C^4-C^7)] ([pGlu]RPCLSCKGP[dNle]-NHPhenethyl; disulfide 4-7)
half-life ([2]; in vivo): 54 min

Molecule: CCCC[C@@H]1NC(=O)[C@@H]2CCCN2C(=O)CNC(=O)[C@H](CCCCN)NC(=O)[C@H](Cc2cnc[nH]2)NC(=O)[C@@H](NC(=O)[C@H](CC(C)C)NC(=O)[C@H](CCCNC(=N)N)NC(=O)[C@@H]2CCCN2C(=O)[C@H](CCCNC(=N)N)NC(=O)[C@@H]2CCC(=O)N2)CSSC[C@@H](C(=O)N[C@@H](Cc2ccccc2)C(=O)O)NC1=O [pE-R—P—R-L-C*—H—K-G-P-Nle-C*—F—OH(Disulfide C^6-C^12)] ([pGlu]RPRLCHKGP[Nle]CF-OH; disulfide 6-12)
half-life ([2]; in vivo): 42 min

Molecule: MHHHHHH-ARN-(200-308)-hGDF15: His-tagged hGDF15 with native sequence, compared with AHA variant in material quality check
Methionine oxidation ([3]; M1): M1: 12.0%
N-199 deamidation ([3]; N10): N10: 50.1%
clipping ([3]; clipping site N10/G11): N10/G11 (<1%)
clipping [3, 6]: R9/N10 (<1%)

B1: 12: GDF15 conjugate listed in Table 1 only; no example text in the patent (conjugate, UniProt Q99988 195-308, looked up)
Growth/differentiation factor …: ARARNGDHCPLGPGRCCRLHTVRASLEDLGWADWVLSPREVQVTMCIGACPSQFRAANMHAQIKTSLHRLKPDTVPAPCCVPASYNPMVLIQKTDTGVSLQTYDDLLAKDCHCI
modifications: conjugate
Duration of action: Body weight (BW) reduction [4]: 6 to 8 days
Duration of action: Food Intake (FI) reduction [4]: 6 to 8 days

B2: hGDF15: non-conjugated hGDF15 (protein, UniProt Q99988 195-308, looked up)
Growth/differentiation factor …: ARARNGDHCPLGPGRCCRLHTVRASLEDLGWADWVLSPREVQVTMCIGACPSQFRAANMHAQIKTSLHRLKPDTVPAPCCVPASYNPMVLIQKTDTGVSLQTYDDLLAKDCHCI
Duration of action: Body weight (BW) reduction [4]: 1 days
Duration of action: Food Intake (FI) reduction [4]: 1 days
PK (1/2 life) [5]: 1 h

B3: AHA-(200-308)-hGDF15: GDF15 mutant designed to remove clipping site, methionine formylation site and N-199 deamidation site (protein)
chain: AHAGDHCPLGPGRCCRLHTVRASLEDLGWADWVLSPREVQVTMCIGACPSQFRAANMHAQIKTSLHRLKPDTVPAPCCVPASYNPMVLIQKTDTGVSLQTYDDLLAKDCHCI
modifications: GDF15 mutant, Intermediate 57 AHA-(200-308)- hGDF15
clipping [3, 6]: None
